The target in test [1] is human fibroblast activation protein (FAP) on FAP-expressing human WI-38 fibroblasts (human). In words: competition FACS, WI-38 cells, vs Cy5-labeled compound; D: pIC50 ≤6.0. To be noted: remark: other sources report otherwise.
The target in test [2] is T1, Recombinant human FAP (R&D systems, #3715-SE) (human).
T1 sequence: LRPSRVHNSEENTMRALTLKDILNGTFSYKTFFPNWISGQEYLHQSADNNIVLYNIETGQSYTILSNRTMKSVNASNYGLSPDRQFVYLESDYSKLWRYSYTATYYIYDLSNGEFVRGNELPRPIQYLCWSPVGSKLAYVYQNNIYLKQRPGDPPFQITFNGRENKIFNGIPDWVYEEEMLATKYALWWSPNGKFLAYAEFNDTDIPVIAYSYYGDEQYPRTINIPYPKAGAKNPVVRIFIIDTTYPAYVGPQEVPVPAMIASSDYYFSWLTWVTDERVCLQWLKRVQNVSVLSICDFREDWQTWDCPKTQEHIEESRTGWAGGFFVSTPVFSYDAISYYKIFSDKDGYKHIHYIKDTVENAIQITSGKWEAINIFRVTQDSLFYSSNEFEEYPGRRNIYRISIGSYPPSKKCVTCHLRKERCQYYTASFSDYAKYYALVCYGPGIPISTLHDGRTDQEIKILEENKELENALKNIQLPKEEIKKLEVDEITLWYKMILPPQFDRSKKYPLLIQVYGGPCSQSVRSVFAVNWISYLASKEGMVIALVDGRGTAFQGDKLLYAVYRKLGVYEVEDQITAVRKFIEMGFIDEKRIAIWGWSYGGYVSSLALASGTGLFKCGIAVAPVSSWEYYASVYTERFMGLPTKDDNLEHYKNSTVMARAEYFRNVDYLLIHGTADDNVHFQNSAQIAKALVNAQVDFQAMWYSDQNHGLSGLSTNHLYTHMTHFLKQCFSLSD

The target of test [3] is Recombinant human DPP4 (R&D systems, #9168-SE) (human).
For test [4], the target named is recombinant human PREP (R&D systems, #4308-SE) (human).
Chain of recombinant human PREP (R&D systems, #4308-SE) (human) (chain, as listed by the source limits assumed): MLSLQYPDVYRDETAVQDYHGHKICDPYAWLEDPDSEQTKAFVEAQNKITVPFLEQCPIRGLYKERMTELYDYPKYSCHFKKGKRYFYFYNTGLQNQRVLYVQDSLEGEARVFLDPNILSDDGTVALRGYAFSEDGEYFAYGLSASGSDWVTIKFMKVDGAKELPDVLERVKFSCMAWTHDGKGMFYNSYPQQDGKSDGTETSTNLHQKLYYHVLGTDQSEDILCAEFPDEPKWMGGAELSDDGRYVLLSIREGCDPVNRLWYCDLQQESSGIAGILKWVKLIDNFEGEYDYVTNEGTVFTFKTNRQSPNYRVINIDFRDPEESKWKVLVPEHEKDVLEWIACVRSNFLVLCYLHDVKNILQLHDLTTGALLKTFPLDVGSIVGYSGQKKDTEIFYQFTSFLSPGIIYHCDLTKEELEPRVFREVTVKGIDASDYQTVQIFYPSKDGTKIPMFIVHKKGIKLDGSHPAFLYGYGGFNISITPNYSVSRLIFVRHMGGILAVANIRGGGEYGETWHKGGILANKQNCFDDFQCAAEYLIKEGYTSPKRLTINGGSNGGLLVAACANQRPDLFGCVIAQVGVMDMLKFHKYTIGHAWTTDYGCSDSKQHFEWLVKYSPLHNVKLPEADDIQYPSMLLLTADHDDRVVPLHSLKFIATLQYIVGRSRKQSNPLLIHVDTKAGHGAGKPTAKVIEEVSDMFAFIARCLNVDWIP

Numbered stars: 1 amine (or outer) side, 2 acyl side, 3 side chain; on linkers, the order of the positions; unused ones are H or OH. Bridge positions count the residues as written; N and C are the ends. * marks the point of attachment. mXylylene = c1cc(C[*:1])cc(C[*:2])c1; Hexanoyl = CCCCCC(=O)*

B1: Hex-[Cys(3MeBn)-Pro-Pro-Thr-Glu(NH-Apr-DOTA')-Phe-Cys]-Asp-NH2 (peptide)
peptide: Hexanoyl-CPPTEFCD-NH2
modifications: linker 1-7 via mXylylene; not fully specified (residue 5); printed as Hex-[Cys(3MeBn)-Pro-Pro-Thr-Glu(NH-Apr-DOTA')-Phe-Cys]-Asp-NH2
B1: the pIC50 Category (FACS) in test [1] is less than 6 pIC50. Further, in test [2], the pIC50 Category (Activity) is less than 6 pIC50.

B2: Hex-[Cys(tMeBn(DOTA-AET))-Pro-Pro-Thr-Gln-Phe-Cys]-Asp-NH2 (3BP-3426) (peptide)
peptide: CPPTQFCD
modifications: N-terminal Hex; Cys1 and Cys7 linked as thioethers via tMeBn(DOTA-AET); C-terminal NH2
On to B2, for which the pIC50 (DPP4) in test [3] was less than 6 pIC50. For the same molecule, the pIC50 (PREP) in test [4] is less than 6 pIC50.

B3: Hex-[Cys(3MeBn)-Pro-Pro-Thr-Glu-Phe-Cys]-NH2 (3BP-3287) (peptide)
peptide: CPPTEFC
modifications: N-terminal Hex; Cys1 and Cys7 linked as thioethers via 3MeBn; C-terminal NH2
Turning to B3, the pIC50 (DPP4) in test [3] was less than 6 pIC50. Further, the pIC50 (PREP) in test [4] is less than 6 pIC50.

B4: Hex-[Cys(3MeBn)-Ala-Pro-Thr-Glu-Phe-Cys]-NH2 (peptide)
peptide: Hexanoyl-CAPTEFC-NH2
modifications: linker 1-7 via mXylylene
SMILES: CCCCCC(=O)N[C@H]1CSCc2cccc(c2)CSC[C@@H](C(N)=O)NC(=O)[C@H](Cc2ccccc2)NC(=O)[C@H](CCC(=O)O)NC(=O)[C@H]([C@@H](C)O)NC(=O)[C@@H]2CCCN2C(=O)[C@H](C)NC1=O
Regarding B4, the pIC50 Category (FACS) in test [1] is less than 6 pIC50.

B5: Hex-[Cys(3MeBn)-Pro-Pro-Thr-Glu-Ala-Cys]-NH2 (peptide)
peptide: Hexanoyl-CPPTEAC-NH2
modifications: linker 1-7 via mXylylene
SMILES: CCCCCC(=O)N[C@H]1CSCc2cccc(c2)CSC[C@@H](C(N)=O)NC(=O)[C@H](C)NC(=O)[C@H](CCC(=O)O)NC(=O)[C@H]([C@@H](C)O)NC(=O)[C@@H]2CCCN2C(=O)[C@@H]2CCCN2C1=O
As to B5, the pIC50 Category (FACS) in test [1] is less than 6 pIC50.

B6: Hex-[Cys(3MeBn)-Pro-Pro-Thr-Gln-Phe-Cys]-Asp-NH2 (3BP-3476) (peptide)
peptide: CPPTQFCD
modifications: N-terminal Hex; Cys1 and Cys7 linked as thioethers via 3MeBn; C-terminal NH2
As to B6, the pIC50 (DPP4) in test [3] is less than 6 pIC50. Also, the pIC50 (PREP) in test [4] is less than 6 pIC50.
